Assay results reported in patent publication US20170159020A1.

Legend:
α6β1 integrin [1] = biological target: α6β1 integrin (UniProt P23229); assay: solid-phase integrin binding assay: 521E8 coated on plate, 10 nM α6β1 integrin, A490
α6β1 integrin [2] = biological target: α6β1 integrin (UniProt P23229); assay: solid-phase integrin binding assay: 511E8 coated on plate, 10 nM α6β1 integrin, A490

Sequence of UniProt P23229 (P23229 other isoform, or with tags, fused parts or gaps limits assumed, chain 1 of 2): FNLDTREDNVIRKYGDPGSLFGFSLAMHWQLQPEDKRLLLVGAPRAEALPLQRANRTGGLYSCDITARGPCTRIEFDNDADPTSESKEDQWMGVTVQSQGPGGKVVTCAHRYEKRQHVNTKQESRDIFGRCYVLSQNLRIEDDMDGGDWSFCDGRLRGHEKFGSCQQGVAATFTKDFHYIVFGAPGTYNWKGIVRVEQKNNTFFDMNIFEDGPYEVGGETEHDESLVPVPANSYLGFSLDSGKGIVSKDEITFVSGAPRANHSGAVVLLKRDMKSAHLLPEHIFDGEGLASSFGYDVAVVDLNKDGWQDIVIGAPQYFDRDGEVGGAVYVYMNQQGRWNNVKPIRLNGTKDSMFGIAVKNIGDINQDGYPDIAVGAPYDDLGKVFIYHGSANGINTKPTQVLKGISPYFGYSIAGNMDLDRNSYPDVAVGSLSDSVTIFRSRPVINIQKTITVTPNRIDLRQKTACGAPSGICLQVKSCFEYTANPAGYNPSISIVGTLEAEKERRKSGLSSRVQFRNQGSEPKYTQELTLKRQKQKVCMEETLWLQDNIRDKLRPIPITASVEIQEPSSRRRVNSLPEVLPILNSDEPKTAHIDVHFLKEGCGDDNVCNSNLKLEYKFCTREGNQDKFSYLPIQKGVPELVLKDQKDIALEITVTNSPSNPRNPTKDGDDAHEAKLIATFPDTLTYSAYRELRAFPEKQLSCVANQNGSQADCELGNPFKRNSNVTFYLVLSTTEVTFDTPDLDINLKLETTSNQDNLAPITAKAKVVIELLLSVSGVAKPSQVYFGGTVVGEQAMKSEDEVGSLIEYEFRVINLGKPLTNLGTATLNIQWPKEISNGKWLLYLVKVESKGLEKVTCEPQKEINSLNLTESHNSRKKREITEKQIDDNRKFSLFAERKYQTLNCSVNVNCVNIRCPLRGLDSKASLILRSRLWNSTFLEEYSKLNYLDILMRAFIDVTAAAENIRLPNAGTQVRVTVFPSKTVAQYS
Sequence of UniProt P23229 (P05556 21-728 limits assumed, chain 2 of 2, further chain): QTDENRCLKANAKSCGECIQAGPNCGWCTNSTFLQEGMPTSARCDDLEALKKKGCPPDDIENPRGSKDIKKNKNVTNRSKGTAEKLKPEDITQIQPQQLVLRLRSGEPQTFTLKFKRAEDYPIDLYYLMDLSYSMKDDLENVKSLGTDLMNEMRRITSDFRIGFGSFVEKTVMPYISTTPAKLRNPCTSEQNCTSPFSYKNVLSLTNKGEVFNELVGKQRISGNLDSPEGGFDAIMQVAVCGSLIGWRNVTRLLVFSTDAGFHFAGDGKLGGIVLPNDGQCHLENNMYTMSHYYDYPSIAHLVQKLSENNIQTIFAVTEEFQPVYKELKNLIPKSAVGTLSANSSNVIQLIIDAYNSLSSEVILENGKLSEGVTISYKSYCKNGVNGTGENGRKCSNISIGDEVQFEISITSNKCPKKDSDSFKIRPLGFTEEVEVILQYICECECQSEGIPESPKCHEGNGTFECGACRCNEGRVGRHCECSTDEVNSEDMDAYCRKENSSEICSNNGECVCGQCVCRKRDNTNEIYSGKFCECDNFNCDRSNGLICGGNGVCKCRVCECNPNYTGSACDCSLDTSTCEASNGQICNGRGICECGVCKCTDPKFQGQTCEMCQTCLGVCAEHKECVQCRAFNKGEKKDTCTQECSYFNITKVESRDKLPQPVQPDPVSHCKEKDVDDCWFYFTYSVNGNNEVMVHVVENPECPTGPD

Row | Substance | increase in integrin binding activity by addition of 50 µg/mL HSA to the coating solution, against 521E8 coated alone (α6β1 integrin [1]) [%] | increase in integrin binding activity by addition of 50 µg/mL gelatin to the coating solution, against 521E8 coated alone (α6β1 integrin [1]) [%] | increase in integrin binding activity by addition of 500 µg/mL HSA to the coating solution, against 521E8 coated alone, at 2.7 nM 521E8 (α6β1 integrin [1]) [%] | increase in integrin binding activity by addition of gelatin (500 µg/mL by context) to the coating solution, against 521E8 coated alone, at 2.7 nM 521E8 (α6β1 integrin [1]) [%] | fold increase in integrin binding activity by addition of gelatin (500 µg/mL by context) to the coating solution, against 511E8 coated alone, at 2.7 nM 511E8 (α6β1 integrin [2]) [fold] | increase in integrin binding activity by addition of 50 µg/mL HSA to the coating solution, against 511E8 coated alone (α6β1 integrin [2]) [%] | increase in integrin binding activity by addition of 50 µg/mL gelatin to the coating solution, against 511E8 coated alone (α6β1 integrin [2]) [%] | increase in integrin binding activity by addition of HSA (500 µg/mL by context) to the coating solution, against 511E8 coated alone, at 2.7 nM 511E8 (α6β1 integrin [2]) [%]
1 | Human recombinant laminin 521E8 (from UniProt O15230 2534-3327; P55268 1573-1798; P11047 1362-1608) (ligand) | 10 to 20 | 10 to 60 | > 60 | > 80 | – | – | – | –
2 | Human recombinant laminin 511E8 (from UniProt O15230 2534-3327; P07942 1561-1786; P11047 1362-1608) (ligand) | – | – | – | – | > 2 | 10 | 20 to 60 | > 80
